The record followed here is patent EP4763988A1 (Minghui Pharmaceutical (Hangzhou) Ltd., dated 2025).

Where two headings read alike, the source gives them in different places.

The target of experiment [1] is T1, Human CDCP1, His Tag (KACTUS, Cat.No. CDC-HM101) (human, UniProt Q9H5V8 30-667, limits assumed).
T1 construct: Bought protein coated on ELISA plates; also called human CDCP1 antigen; CDCP1 antigen; not shown: His tag
T1 sequence (looked up): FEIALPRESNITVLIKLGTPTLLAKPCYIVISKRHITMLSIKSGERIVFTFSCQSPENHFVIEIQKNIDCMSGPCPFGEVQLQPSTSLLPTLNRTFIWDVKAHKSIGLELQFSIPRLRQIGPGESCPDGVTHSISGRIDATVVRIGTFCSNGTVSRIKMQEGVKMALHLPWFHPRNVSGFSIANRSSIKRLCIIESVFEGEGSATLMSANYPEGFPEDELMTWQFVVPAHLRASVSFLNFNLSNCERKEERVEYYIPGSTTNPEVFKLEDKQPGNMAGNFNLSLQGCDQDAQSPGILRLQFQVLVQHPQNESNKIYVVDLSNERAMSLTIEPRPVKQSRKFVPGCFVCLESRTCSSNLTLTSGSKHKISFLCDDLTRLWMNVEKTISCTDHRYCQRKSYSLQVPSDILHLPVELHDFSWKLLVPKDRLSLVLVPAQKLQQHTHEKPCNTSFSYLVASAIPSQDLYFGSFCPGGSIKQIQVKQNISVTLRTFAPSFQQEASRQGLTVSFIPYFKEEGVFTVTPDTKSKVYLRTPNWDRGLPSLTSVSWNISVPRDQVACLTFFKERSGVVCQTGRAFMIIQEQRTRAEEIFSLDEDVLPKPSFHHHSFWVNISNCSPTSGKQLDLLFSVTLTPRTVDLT
Kind of experiment: ELISA, plate-coated CDCP1 His Tag 0.5 ug/mL, four-parameter fit.

Experiment [2] addresses T1, Human CDCP1, His Tag (KACTUS, Cat.No. …). Described as above. This is another data set of the same source.
For experiment [3], the target named is T2, human CDCP1 endogenously expressed on tumor cells (HCT116, SW480, HT-29, LNCaP) (human, UniProt Q9H5V8 30-836).
T2 sequence (looked up): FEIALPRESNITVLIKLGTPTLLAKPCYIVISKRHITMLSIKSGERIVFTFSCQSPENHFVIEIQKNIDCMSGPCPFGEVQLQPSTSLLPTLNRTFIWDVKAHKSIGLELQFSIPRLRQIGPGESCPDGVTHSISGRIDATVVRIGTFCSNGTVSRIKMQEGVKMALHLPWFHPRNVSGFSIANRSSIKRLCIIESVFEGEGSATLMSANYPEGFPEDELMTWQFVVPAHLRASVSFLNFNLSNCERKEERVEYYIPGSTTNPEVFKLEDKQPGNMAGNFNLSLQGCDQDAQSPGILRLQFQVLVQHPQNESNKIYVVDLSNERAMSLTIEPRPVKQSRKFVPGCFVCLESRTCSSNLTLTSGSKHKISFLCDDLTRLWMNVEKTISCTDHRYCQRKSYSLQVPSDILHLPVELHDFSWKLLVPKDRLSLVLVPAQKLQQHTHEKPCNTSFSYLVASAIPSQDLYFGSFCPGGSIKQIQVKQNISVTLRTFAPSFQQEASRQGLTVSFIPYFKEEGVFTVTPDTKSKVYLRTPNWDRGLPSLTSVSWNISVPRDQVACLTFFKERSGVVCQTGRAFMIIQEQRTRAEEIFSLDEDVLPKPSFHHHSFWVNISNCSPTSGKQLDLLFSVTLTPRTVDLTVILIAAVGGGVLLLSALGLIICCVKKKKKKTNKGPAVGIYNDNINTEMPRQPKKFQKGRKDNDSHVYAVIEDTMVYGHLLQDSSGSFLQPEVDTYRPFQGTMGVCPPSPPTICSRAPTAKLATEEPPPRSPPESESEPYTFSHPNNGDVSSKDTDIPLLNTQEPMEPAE
Nature of the experiment: cell-based or functional assay.

Experiment [4] has as its target T2, human CDCP1 endogenously expressed on …. Nature of the experiment: flow cytometry on LNCaP cells endogenously expressing human CDCP1.
For experiment [5] the target is unchanged. Nature of the experiment: flow cytometry on SW480 cells endogenously expressing human CDCP1. On the technique in general: Flow cytometry measures light scatter and fluorescence of single cells or particles in a stream.
Experiment [6] has the same target. Kind of experiment: flow cytometry on HCT116 cells endogenously expressing human CDCP1.
Experiment [7] has as its target T3, Human CDCP1, His Tag (KACTUS, Cat.No. CDC-HM101) (human) (UniProt Q9H5V8).
T3 sequence (looked up): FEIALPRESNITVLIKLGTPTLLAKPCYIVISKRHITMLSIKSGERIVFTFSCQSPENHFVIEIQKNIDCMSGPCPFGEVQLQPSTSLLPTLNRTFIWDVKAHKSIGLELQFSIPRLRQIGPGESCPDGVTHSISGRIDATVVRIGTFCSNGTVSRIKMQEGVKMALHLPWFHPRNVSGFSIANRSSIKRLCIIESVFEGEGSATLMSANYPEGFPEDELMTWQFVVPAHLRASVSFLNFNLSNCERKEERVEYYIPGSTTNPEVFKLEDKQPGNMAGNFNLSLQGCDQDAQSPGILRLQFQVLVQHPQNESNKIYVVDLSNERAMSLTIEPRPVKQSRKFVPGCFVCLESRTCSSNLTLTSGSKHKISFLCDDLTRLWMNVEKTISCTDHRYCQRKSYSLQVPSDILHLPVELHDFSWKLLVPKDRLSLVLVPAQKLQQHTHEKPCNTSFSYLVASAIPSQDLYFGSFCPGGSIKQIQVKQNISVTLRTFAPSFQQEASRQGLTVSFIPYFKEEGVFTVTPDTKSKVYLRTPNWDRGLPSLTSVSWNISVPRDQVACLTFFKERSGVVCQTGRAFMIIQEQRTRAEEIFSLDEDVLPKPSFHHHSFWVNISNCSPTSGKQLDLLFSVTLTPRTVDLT
Nature of the experiment: ELISA of E. coli lysate supernatant of the clone on human CDCP1 antigen. Background: In an ELISA, binding on a coated surface is turned into a signal by an enzyme label.

B1: 25A11 (MHAB10-PC1) (antibody, human IgG1, kappa, L234A L235A, V domains shown)
VH: EVQLQQPGAELVKPGASVKMSCKASGYTFTSYYMYWVKQRPGQGLEWIGEINPSHGGTNFNEKFKNKATLTVDKSSSTVYMQLSSLTSEDSAVYYCTRGGNYPYFAMDYWGQGTSVTVSS
VL: DIQMTQTTSSLSASLGDRVTISCRASQDISNYLNWYQQKPDGTVKLLIYYTSRLHSGVPSRFSGSGSGTDYSLTISNLEQEDIATYFCQQGNTLPWTFGGGTKLEIKR
notes: Variable regions from US20080008719A1 on Human IgG1-Kappa constant regions; MW printed 146kDa; also called positive control antibody
A word on the EC50: it is the concentration giving half of the maximal effect. Regarding B1, in experiment [1], the midpoint of the response, the EC50, lay at 0.0115 µg/mL; the Top was determined as 1.9 OD450; the bottom turned out to be 0.0395 OD450. In experiment [2], this molecule gave an EC50 of 0.0101 µg/mL, a Top of 1.35 OD450 and a bottom of 0.041 OD450.

B2: h14A043 (MHAB10-PC2) (antibody, human IgG1, kappa, L234A L235A, V domains shown)
VH: QVQLVQSGAEVKKPGSSVKVSCKASGFNIKDYYMNWVRQAPGQGLEWIGWIDPENANTIYDPKFQGRVTITADESTSTAYMELSSLRSEDTAVYYCYGSSYRFTYWGQGTLVTVSS
VL: EIVLTQSPATLSLSPGERATLSCSASSSVSYLYWYQQKPGQAPRPWIYLTSNLASGVPARFSGSGSGTDFTLTISSLEPEDFAVYYCQQWSSNPFTFGGGTKVEIKR
notes: Variable regions from US20230050380A1 on Human IgG1-Kappa constant regions; also called positive control antibody
Consider B2, for which the “EC50 (pM), endocytosis-mediated cell killing (Fab-ZAP, HCT116 cells)” value in experiment [3] was 41 pM. For the same molecule, the EC50 in experiment [4] amounted to 2.21 µg/mL; in experiment [5], 2.42 µg/mL; in experiment [6], 11.9 µg/mL.

B3: MH1-6-C-2-50 (VHH)
VHH: QLQLVESGGGLVQPGGSLRLSCAASGSDVSANGMVWHRQAPGKQREWVAVISSSGSTNYADSVKGRFTISRDSDKNTMYLQMNNLKPEDTAVYLCGVAHYGQTYWGKGTLVTVSS
In experiment [7], B3 displayed an OD450 of 0.304.
